Laboratory results: patent US20160008485A1 (Pfizer, published 2016)
Where “and” joins values, the source holds several entries; their conditions need not be identical. Equal entries are not always repeated. Where two headings read alike, the source gives them in different places.

T1: human 5T4 antigen on cells (MDAMB435/5T4 transfectants; MDA-MB-468) (human, UniProt Q13641 32-420)
T1 sequence (looked up): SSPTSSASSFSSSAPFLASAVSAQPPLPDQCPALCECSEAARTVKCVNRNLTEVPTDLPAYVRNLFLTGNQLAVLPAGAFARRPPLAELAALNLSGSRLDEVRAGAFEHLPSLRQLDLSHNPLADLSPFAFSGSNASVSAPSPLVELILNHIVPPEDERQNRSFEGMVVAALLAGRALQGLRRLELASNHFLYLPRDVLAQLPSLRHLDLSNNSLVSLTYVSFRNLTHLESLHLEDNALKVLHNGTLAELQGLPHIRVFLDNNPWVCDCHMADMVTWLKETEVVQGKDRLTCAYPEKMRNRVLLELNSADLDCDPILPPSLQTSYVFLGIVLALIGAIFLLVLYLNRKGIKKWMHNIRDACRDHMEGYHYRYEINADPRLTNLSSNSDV

B1: parental anti-5T4 antibody (wild type human IgG1) (antibody)
heavy: not shown
light: DIQMTQSPSSLSASVGDRVTITCKASQSVSNDVAWYQQKPGKAPKLLIYFATNRYTGVPSRFSGSGYGTDFTLTISSLQPEDFATYYCQQDYSSPWTFGQGTKVEIKRTVAAPSVFIFPPSDEQLKSGTASVVCLLNNFYPREAKVQWKVDNALQSGNSQESVTEQDSKDSTYSLSSTLTLSKADYEKHKVYACEVTHQGLSSPVTKSFNRGEC
notes: Humanized, human IgG1/kappa; also called Parental anti-5T4 Ab; wt IgG1
B2: 5T4-L443C-mcMMAD (antibody)
heavy: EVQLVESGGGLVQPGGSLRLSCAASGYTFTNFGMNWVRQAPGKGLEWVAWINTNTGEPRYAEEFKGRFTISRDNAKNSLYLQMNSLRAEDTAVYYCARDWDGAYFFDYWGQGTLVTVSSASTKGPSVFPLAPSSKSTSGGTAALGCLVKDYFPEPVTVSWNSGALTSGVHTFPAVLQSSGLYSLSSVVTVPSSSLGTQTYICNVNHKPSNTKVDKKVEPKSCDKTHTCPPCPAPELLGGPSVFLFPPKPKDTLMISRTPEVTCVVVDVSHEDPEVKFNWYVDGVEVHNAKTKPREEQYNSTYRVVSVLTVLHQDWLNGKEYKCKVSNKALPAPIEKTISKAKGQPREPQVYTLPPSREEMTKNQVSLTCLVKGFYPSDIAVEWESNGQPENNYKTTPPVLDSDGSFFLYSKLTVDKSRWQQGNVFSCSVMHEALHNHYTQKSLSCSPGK
light: DIQMTQSPSSLSASVGDRVTITCKASQSVSNDVAWYQQKPGKAPKLLIYFATNRYTGVPSRFSGSGYGTDFTLTISSLQPEDFATYYCQQDYSSPWTFGQGTKVEIKRTVAAPSVFIFPPSDEQLKSGTASVVCLLNNFYPREAKVQWKVDNALQSGNSQESVTEQDSKDSTYSLSSTLTLSKADYEKHKVYACEVTHQGLSSPVTKSFNRGEC
modifications: mcMMAD on engineered Cys 443 (EU)
notes: Antibody-drug conjugate; also called 5T4-L443C-mcMMAD (1)
B3: 5T4-E380C-mcMMAD (antibody, human IgG1, kappa)
heavy: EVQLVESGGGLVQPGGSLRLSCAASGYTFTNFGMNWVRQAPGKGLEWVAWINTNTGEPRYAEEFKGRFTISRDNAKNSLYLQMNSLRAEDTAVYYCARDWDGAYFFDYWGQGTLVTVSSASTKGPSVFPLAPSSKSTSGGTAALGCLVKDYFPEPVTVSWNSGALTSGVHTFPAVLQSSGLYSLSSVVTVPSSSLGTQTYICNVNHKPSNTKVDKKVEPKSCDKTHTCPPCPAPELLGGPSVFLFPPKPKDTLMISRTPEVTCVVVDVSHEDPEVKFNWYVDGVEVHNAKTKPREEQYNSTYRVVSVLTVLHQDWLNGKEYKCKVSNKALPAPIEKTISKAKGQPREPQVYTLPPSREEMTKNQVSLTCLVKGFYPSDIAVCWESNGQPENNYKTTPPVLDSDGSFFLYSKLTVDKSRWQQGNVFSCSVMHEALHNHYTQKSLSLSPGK
light: DIQMTQSPSSLSASVGDRVTITCKASQSVSNDVAWYQQKPGKAPKLLIYFATNRYTGVPSRFSGSGYGTDFTLTISSLQPEDFATYYCQQDYSSPWTFGQGTKVEIKRTVAAPSVFIFPPSDEQLKSGTASVVCLLNNFYPREAKVQWKVDNALQSGNSQESVTEQDSKDSTYSLSSTLTLSKADYEKHKVYACEVTHQGLSSPVTKSFNRGEC
modifications: mcMMAD on engineered Cys 380 (EU)
notes: Antibody-drug conjugate
B4: 5T4-L398C-mcMMAD (antibody, human IgG1, kappa)
heavy: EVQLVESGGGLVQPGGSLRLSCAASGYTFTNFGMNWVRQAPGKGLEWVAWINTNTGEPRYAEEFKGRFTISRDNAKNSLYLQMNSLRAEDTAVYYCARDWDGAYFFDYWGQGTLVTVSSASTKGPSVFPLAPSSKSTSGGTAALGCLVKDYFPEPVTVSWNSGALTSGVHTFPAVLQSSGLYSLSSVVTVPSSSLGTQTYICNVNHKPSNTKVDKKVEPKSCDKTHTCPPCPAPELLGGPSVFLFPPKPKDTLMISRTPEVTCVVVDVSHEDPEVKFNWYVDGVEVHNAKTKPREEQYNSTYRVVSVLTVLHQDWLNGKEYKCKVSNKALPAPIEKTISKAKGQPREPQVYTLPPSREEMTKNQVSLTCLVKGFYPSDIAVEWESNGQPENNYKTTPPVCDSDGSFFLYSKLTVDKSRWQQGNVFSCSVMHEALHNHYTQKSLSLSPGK
light: DIQMTQSPSSLSASVGDRVTITCKASQSVSNDVAWYQQKPGKAPKLLIYFATNRYTGVPSRFSGSGYGTDFTLTISSLQPEDFATYYCQQDYSSPWTFGQGTKVEIKRTVAAPSVFIFPPSDEQLKSGTASVVCLLNNFYPREAKVQWKVDNALQSGNSQESVTEQDSKDSTYSLSSTLTLSKADYEKHKVYACEVTHQGLSSPVTKSFNRGEC
modifications: mcMMAD on engineered Cys 398 (EU)
notes: Antibody-drug conjugate
B5: 5T4-V422C-mcMMAD (antibody, human IgG1, kappa)
heavy: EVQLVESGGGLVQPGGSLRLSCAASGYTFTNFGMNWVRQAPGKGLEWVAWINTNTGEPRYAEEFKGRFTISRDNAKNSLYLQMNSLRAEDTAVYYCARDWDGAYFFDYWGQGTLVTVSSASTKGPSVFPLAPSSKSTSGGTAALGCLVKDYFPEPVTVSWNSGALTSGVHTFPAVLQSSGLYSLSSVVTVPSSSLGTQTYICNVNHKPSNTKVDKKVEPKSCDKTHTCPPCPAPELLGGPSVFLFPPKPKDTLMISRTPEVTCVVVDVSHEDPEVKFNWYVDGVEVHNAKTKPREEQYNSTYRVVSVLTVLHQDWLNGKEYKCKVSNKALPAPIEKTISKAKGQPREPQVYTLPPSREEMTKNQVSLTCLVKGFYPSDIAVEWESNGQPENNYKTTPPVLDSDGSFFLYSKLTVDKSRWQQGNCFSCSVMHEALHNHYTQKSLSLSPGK
light: DIQMTQSPSSLSASVGDRVTITCKASQSVSNDVAWYQQKPGKAPKLLIYFATNRYTGVPSRFSGSGYGTDFTLTISSLQPEDFATYYCQQDYSSPWTFGQGTKVEIKRTVAAPSVFIFPPSDEQLKSGTASVVCLLNNFYPREAKVQWKVDNALQSGNSQESVTEQDSKDSTYSLSSTLTLSKADYEKHKVYACEVTHQGLSSPVTKSFNRGEC
modifications: mcMMAD on engineered Cys 422 (EU)
notes: Antibody-drug conjugate

Legend:
human FcRn [1] = molecular target: T2, human FcRn (human, UniProt P55899 24-297; P61769 21-119, limits assumed, biotinylated through an engineered Avi-tag); experiment: BIAcore SPR, steady state, pH 6.0, biotinylated human FcRn on SA chip
T2 construct: Immobilised on a streptavidin chip; not shown: engineered Avi-tag

human FcRn [2] = molecular target: T2, human FcRn; experiment: as above; remark: listed apart in the source
Source text: Binding is detected by surface plasmon resonance (SPR) of laser light refracting from the surface. Human FcRn was specifically biotinylated through an engineered Avi-tag using the BirA reagent (Catalog #: BIRA500, Avidity, LLC, Aurora, Colo.) and immobilized onto a streptavidin (SA) sensor chip to enable uniform orientation of the FcRn protein on the sensor.

[3] = molecular target: T1, human 5T4 antigen on cells …; experiment: cell-based or functional assay

T2 sequence (P55899 24-297 limits assumed, chain 1 of 2): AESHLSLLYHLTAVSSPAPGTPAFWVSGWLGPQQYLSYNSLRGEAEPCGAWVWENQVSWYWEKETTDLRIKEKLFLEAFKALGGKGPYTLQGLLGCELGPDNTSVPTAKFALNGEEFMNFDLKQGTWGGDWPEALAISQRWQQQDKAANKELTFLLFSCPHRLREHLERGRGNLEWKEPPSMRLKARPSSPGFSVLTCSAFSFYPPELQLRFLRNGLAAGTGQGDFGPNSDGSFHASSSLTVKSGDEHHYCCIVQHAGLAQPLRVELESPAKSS
T2 sequence (P61769 21-119 limits assumed, chain 2 of 2): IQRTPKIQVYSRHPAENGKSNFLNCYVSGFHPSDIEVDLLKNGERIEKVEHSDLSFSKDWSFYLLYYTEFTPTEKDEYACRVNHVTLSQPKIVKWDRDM

Binder	Kd (human FcRn [1]) [nM]	Kd (human FcRn [2])	IC50, growth inhibition (MTS), MDA-MB-468 cells (5T4 expression 2+) [3] [ng/mL]	IC-50, growth inhibition (MTS), MDAMB435/5T4 cells (5T4 expression 3+) [3] [ng ADC/ml]
B1	412	493 nM	–	–
B2	–	697 nM and 518 nM	20000	120
B3	–	409 nM	8100	170
B4	–	704 nM	13000	160
B5	–	402 nM	36000	270
